Positions count from the first letter of the chain named. In names and notes the source's numbering stands.
B1: recombinant wild-type human PAPP-A2 (pregnancy-associated plasma protein-A2) (protein)
chain: PPEESNQNGGEGSYREAETFNSQVGLPILYFSGRRERLLLRPEVLAEIPREAFTVEAWVKPEGGQNNPAIIAGVFDNCSHTVSDKGWALGIRSGKDKGKRDARFFFSLCTDRVKKATILISHSRYQPGTWTHVAATYDGRHMALYVDGTQVASSLDQSGPLNSPFMASCRSLLLGGDSSEDGHYFRGHLGTLVFWSTALPQSHFQHSSQHSSGEEEATDLVLTASFEPVNTEWVPFRDEKYPRLEVLQGFEPEPEILSPLQPPLCGQTVCDNVELISQYNGYWPLRGEKVIRYQVVNICDDEGLNPIVSEEQIRLQHEALNEAFSRYNISWQLSVHQVHNSTLRHRVVLVNCEPSKIGNDHCDPECEHPLTGYDGGDCRLQGRCYSWNRRDGLCHVECNNMLNDFDDGDCCDPQVADVRKTCFDPDSPKRAYMSVKELKEALQLNSTHFLNIYFASSVREDLAGAATWPWDKDAVTHLGGIVLSPAYYGMPGHTDTMIHEVGHVLGLYHVFKGVSERESCNDPCKETVPSMETGDLCADTAPTPKSELCREPEPTSDTCGFTRFPGAPFTNYMSYTDDNCTDNFTPNQVARMHCYLDLVYQQWTESRKPTPIPIPPMVIGQTNKSLTIHWLPPISGVVYDRASGSLCGACTEDGTFRQYVHTASSRRVCDSSGYWTPEEAVGPPDVDQPCEPSLQAWSPEVHLYHMNMTVPCPTEGCSLELLFQHPVQADTLTLWVTSFFMESSQVLFDTEILLENKESVHLGPLDTFCDIPLTIKLHVDGKVSGVKVYTFDERIEIDAALLTSQPHSPLCSGCRPVRYQVLRDPPFASGLPVVVTHSHRKFTDVEVTPGQMYQYQVLAEAGGELGEASPPLNHIHGAPYCGDGKVSERLGEECDDGDLVSGDGCSKVCELEEGFNCVGEPSLCYMYEGDGICEPFERKTSIVDCGIYTPKGYLDQWATRAYSSHEDKKKCPVSLVTGEPHSLICTSYHPDLPNHRPLTGWFPCVASENETQDDRSEQPEGSLKKEDEVWLKVCFNRPGEARAIFIFLTTDGLVPGEHQQPTVTLYLTDVRGSNHSLGTYGLSCQHNPLIINVTHHQNVLFHHTTSVLLNFSSPRVGISAVALRTSSRIGLSAPSNCISEDEGQNHQGQSCIHRPCGKQDSCPSLLLDHADVVNCTSIGPGLMKCAITCQRGFALQASSGQYIRPMQKEILLTCSSGHWDQNVSCLPVDCGVPDPSLVNYANFSCSEGTKFLKRCSISCVPPAKLQGLSPWLTCLEDGLWSLPEVYCKLECDAPPIILNANLLLPHCLQDNHDVGTICKYECKPGYYVAESAEGKVRNKLLKIQCLEGGIWEQGSCIPVVCEPPPPVFEGMYECTNGFSLDSQCVLNCNQEREKLPILCTKEGLWTQEFKLCENLQGECPPPPSELNSVEYKCEQGYGIGAVCSPLCVIPPSDPVMLPENITADTLEHWMEPVKVQSIVCTGRRQWHPDPVLVHCIQSCEPFQADGWCDTINNRAYCHYDGGDCCSSTLSSKKVIPFAADCDLDECTCRDPKAEENQ
B2: PAPP-A2(A1033V) (protein)
chain: B1 chain with A799V

What was measured:
[1] = target: T1, recombinant human IGFBP-4, 125I-labeled, P22692
T1 chain: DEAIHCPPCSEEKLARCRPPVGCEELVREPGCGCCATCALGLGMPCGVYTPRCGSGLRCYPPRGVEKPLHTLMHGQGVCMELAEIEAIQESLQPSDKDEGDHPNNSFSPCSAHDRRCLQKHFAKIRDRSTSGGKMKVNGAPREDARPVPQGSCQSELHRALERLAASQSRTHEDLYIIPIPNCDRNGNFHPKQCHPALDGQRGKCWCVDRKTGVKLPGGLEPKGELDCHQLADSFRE

[2] = target: recombinant human IGFBP-5, 125I-labeled, P24593
[3] = target: recombinant human IGFBP-3, 125I-labeled, P17936
Chain of recombinant human IGFBP-3, 125I-labeled, P17936 (P17936 28-291): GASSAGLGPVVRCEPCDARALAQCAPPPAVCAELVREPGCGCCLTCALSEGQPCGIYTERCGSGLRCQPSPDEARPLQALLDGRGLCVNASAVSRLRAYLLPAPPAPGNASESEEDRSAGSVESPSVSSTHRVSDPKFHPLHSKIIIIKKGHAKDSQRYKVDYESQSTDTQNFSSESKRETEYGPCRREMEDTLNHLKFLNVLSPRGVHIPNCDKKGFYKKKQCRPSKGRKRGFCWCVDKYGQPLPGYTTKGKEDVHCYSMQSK

Chain of recombinant human IGFBP-5, 125I-labeled, P24593 (P24593 21-272): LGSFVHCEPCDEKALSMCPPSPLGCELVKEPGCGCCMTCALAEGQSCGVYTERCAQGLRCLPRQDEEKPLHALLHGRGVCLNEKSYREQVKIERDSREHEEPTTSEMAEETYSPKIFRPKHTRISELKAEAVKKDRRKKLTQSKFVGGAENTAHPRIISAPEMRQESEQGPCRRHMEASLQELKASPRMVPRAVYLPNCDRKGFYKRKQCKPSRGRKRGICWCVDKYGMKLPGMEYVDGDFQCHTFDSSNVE

| Protein | proteolytic cleavage of radiolabeled IGFBP (SDS-PAGE, autoradiography) [1] | proteolytic cleavage of radiolabeled IGFBP (SDS-PAGE, autoradiography) [2] | proteolytic cleavage of radiolabeled IGFBP (SDS-PAGE, autoradiography) [3] | proteolytic cleavage at equimolar concentrations of wild type and mutant (6 h reaction) [2] | proteolytic cleavage at equimolar concentrations of wild type and mutant (6 h reaction) [3] |
| --- | --- | --- | --- | --- | --- |
| B1 | none of the variants cleaved the PAPP-A substrate, IGFBP-4 | media from cells transfected with WT PAPP-A2 cDNA completely cleaved these substrates | media from cells transfected with WT PAPP-A2 cDNA completely cleaved these substrates |  |  |
| B2 | none of the variants cleaved the PAPP-A substrate, IGFBP-4 | showed no proteolytic activity towards IGFBP-3 or -5 | showed no proteolytic activity towards IGFBP-3 or -5 | at equimolar concentrations (FIG. 3C), it still showed no activity | at equimolar concentrations (FIG. 3C), it still showed no activity |
